This is an account of results in patent publication US20230047413A1 (Janssen / Centocor, published 2023).

Assay [1] deals with T1, tau phospho-peptide of the direct ELISA of Example 11.
T1 construct: also called pT217 peptide; pT212/pT217 peptide
As to the kind of experiment: direct ELISA on plate-coated tau phospho-peptide, Fabs. The protocol: Binding to tau phospho-peptide was analysed by ELISA where peptide (10 ng/mL) was directly coated to the plate overnight. […] After incubation with antibodies, plates were washed and 50 μL per well of HRPO labelled anti-Fab antibody (Jackson Immunoresearch laboratories) (diluted 1:10000 in blocking buffer). After another washing step detection was performed with “One step” TMB (Thermo Scientific) according to the manufacturers' instructions. Plates were analysed in EnVision® 2102 Multilabel Reader (Perkin Elmer, Waltham, Mass., USA). Binding curves were generated using GraphPad Prism7.0 software.

In assay [2] the target is T2, Peptide-2 (human, phosphothreonine 212, phosphothreonine 217 (tau 2N4R numbering); short chain biotin (SCBiot) and dPEG4 at the N-terminus; amide at the C-terminus).
T2 construct: also called pT212/pT217-tau peptide (Peptide-2)
Put plainly: SPR ProteOn, peptide captured, Fab as analyte; range of n=2; upper end of n=2 range. The protocol: (§1) The binding affinity of PT3 Fab towards each of the fourteen tau phosphopeptides shown in Table 6 was assessed by surface plasmon resonance (SPR) using a Bio-Rad ProteOn XPR36. Peptides were synthesized by standard chemical methods (New England Peptide) with short-chain biotin and a PEG4 moiety at the N-terminus. Biotinylated peptide was captured on a neutravidin-coated NLC biosensor chip and PT3 Fab was flowed over the surface to measure kinetic parameters.
(§2) All experiments were performed at 25° C. using phosphate buffered saline, pH 7.4, 0.005% Tween 20 (PBST) as both running buffer and sample dilution buffer. Prior to running samples, the NLC chip was conditioned by running PBST over the chip surface for 1 h. Approximately 5-10 RU of peptide was captured on the chip surface by diluting peptide to 10 ng/mL in PBST and injecting over the flow channels at 30 μL/min for 100 s. Serial dilutions of PT3 Fab (1.1-90 nM) were analyzed and, with the exception of Peptide-8, each concentration was measured in duplicate. After capture of peptides, the antibody titration was injected at 60 μL/min for 3 minutes (association phase), followed by 300 s of buffer only (dissociation phase).
(§3) The data were double referenced by subtraction of the interspot response and the curves generated by the buffer-only injection. The chip surface was regenerated using a single injection of 0.85% phosphoric acid at 30 μL/min for 100 s contact time, followed by four injections of running buffer before the next antibody titration injection. The data processing and kinetic analysis were done using the instrument software. The data were analyzed using a simple Langmuir 1:1 binding model.

For assay [3], the target named is Peptide-4 (human, phosphoserine 210, phosphothreonine 217 (tau 2N4R numbering); SCBiot and dPEG4 at the N-terminus; amide at the C-terminus). Described as above. The protocol:
as §1, §2, §3

The target of assay [4] is Peptide-5 (human, phosphoserine 210, phosphoserine 214, phosphothreonine 217 (tau 2N4R numbering); SCBiot and dPEG4 at the N-terminus; amide at the C-terminus). Described as above. The protocol: as §1, §2, §3
For assay [5], the target named is T3, Peptide-7 (human, phosphothreonine 212, phosphoserine 214 (tau 2N4R numbering); SCBiot and dPEG4 at the N-terminus; amide at the C-terminus). The description is as above. The protocol: as §1, §2, §3
Assay [6] deals with T2, Peptide-2. Put plainly: SPR ProteOn, peptide captured, Fab as analyte; Peptide-2 (pT212/pT217); peptide mapping run of Table 6, n=2. The protocol: as §1, §2
(§4) The data were double referenced by subtraction of the interspot response and the curves generated by the buffer-only injection. […] The data were analyzed using a simple Langmuir 1:1 binding model.

The target of assay [7] is T4, Peptide-6 (human, phosphothreonine 217 (tau 2N4R numbering); SCBiot and dPEG4 at the N-terminus; amide at the C-terminus). As to the kind of experiment: SPR ProteOn, peptide captured, Fab as analyte; range of n=2; Peptide-6 (pT217 only); lower end of n=2 range. The protocol:
as §1, §2, §4

The target of assay [8] is T4, Peptide-6. As to the kind of experiment: SPR ProteOn, peptide captured, Fab as analyte; range of n=2; Peptide-6 (pT217 only); upper end of n=2 range. The protocol: as §1, §2, §4
The target of assay [9] is T3, Peptide-7. As to the kind of experiment: SPR ProteOn, peptide captured, Fab as analyte; range of n=2; Peptide-7 (pT212/pS214); lower end of n=2 range. The protocol: as §1, §2, §4
Assay [10] has as its target T2, Peptide-2. As to the kind of experiment: SPR ProteOn, peptide captured, Fab as analyte; range of n=2; Peptide-2 (pT212/pT217); Table 12 run; lower end of n=2 range. The protocol:
A subset of HFA-PT3 monoclonal antibody variants, selected based on biophysical characterization and ELISA binding to PHF, were analyzed by Surface Plasmon Resonance (SPR) with a ProteOn XPR36 for binding to the following phosphopeptides: pT212/pT217-tau peptide (Peptide-2, SEQ ID NO: 48) and pT212-tau peptide (Peptide-8, SEQ ID NO: 54). All experiments were performed at 25° C. using PBST, pH 7.4, (Bio-Rad Cat#176-2720) as both running buffer and sample dilution buffer.
Fab/peptide binding. Biotinylated peptide was captured on a neutravidin-coated NLC biosensor chip pre-conditioned with PBST, and Fab was flowed over the surface to measure kinetic parameters. Approximately 5-10 RU of peptide was captured on the chip surface by diluting peptide to 10 ng/mL in PBST and injecting over the flow channels at 30 μL/min for 100 s. Serial dilutions of PT3 Fab (1.1 nM to 90 nM) were injected at 60 μL/min for 3 minutes (association phase), followed by 300 s of buffer only (dissociation phase).
Data were double referenced by subtraction of the interspot response, and the curves generated by the buffer only injection. The chip surface was regenerated with 0.85% phosphoric acid, followed by PBST injection before the next antibody titration injection. Data processing and analysis were performed using instrument software. The data were fit using a simple Langmuir 1:1 binding model.

T2 sequence (peptide, as listed by the source): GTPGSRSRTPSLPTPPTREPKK

B1: PT3 Fab (B187) (Fab, V domains shown)
VH: EVKLVESGGDLVKPGGSLKLSCAASGFTFSSYAMSWVRQNPEKRLEWVASISKGGNTYYPNSVKGRFTISRDNARNILYLQMSSLRSEDTALYYCARGWGDYGWFAYWGQVTLVTVSA
VL: DIKMTQSPSSMYASLGERVTITCKASQDINRYLNWFQQKPGKSPKTLIYRANRLLDGVPSRFSGSGSGQDYSLTISSLDYEDMGIYYCLQYDEFPLTFGDGTKLELK
notes: Chimeric Fab: mouse variable regions, human IgG1/kappa constant region, 6xHis tag at the C-terminus of the heavy chain; also called mouse parental Fab of PT3
Turning to B1, the “EC50 (read off the curve)” value in assay [1] is roughly 0.2 nM. For the same molecule, the koff came to 0.000245 s⁻¹ in assay [2], 0.00627 s⁻¹ in assay [3], 0.00598 s⁻¹ in [4] and 0.0056 s⁻¹ in assay [5]. Moreover, the kon was 982000 M⁻¹ s⁻¹ in assay [2], 968000 M⁻¹ s⁻¹ in assay [3], 863000 M⁻¹ s⁻¹ in assay [4] and 487000 M⁻¹ s⁻¹ in [5]. Besides, the Kd in [6] was 0.27 nM; in assay [7], 10.9 to 11.9 nM; in assay [8] it was 10.9 to 11.9 nM; in assay [9] it was 11.3 to 15.7 nM; in assay [10], 0.0738 to 0.101 nM.
